The labels stand for the following.
B1: dBBDu183H V63K / dBBDu072L (antibody, name in Kabat numbering, V domains shown)
VH: QVQLVESGGGLVQPGRSLRLSCAASGFTFSNAWMHWVRQAPGKGLEWVAQIKDKGNAYAAYYAPSKKGRFTISRDDSKNSIYLQMNSLKTEDTAVYYCHYVHYASASTVLPAFGVDAWGQGTTVTVSS
VL: DIVMTQSPLSLPVTPGEPASISCQASQELVHMNRNTYLHWYQQKPGQAPRLLIYKVSNRFPGVPDRFSGSGSGTDFTLKISRVEAEDVGVYYCAQGTSVPFTFGQGTKLEIK
notes: as m1, one VH change
B2: dBBDu183H V63Q / dBBDu072L (antibody, name in Kabat numbering, V domains shown)
VH: B1 VH with K66Q
VL: B1 VL
notes: as m1, one VH change
B3: dBBDu183H V63R / dBBDu072L (antibody, name in Kabat numbering, V domains shown)
VH: B1 VH with K66R
VL: B1 VL
notes: as m1, one VH change
B4: dBBDu183H V100iT / dBBDu072L (antibody, name in Kabat numbering, V domains shown)
VH: B1 VH with K66V, V115T
VL: B1 VL
notes: as m1, one VH change
B5: dBBDu183H V100cY / dBBDu072L (antibody, name in Kabat numbering, V domains shown)
VH: B1 VH with K66V, V109Y
VL: B1 VL
notes: as m1, one VH change
B6: dBBDu183H V100cW / dBBDu072L (antibody, name in Kabat numbering, V domains shown)
VH: B1 VH with K66V, V109W
VL: B1 VL
notes: as m1, one VH change
B7: dBBDu183H V100cQ / dBBDu072L (antibody, name in Kabat numbering, V domains shown)
VH: B1 VH with K66V, V109Q
VL: B1 VL
notes: as m1, one VH change
B8: dBBDu183H V100cT / dBBDu072L (antibody, name in Kabat numbering, V domains shown)
VH: B1 VH with K66V, V109T
VL: B1 VL
notes: as m1, one VH change
B9: dBBDu183H V100cH / dBBDu072L (antibody, name in Kabat numbering, V domains shown)
VH: B1 VH with K66V, V109H
VL: B1 VL
notes: as m1, one VH change
B10: dBBDu183H V100cK / dBBDu072L (antibody, name in Kabat numbering, V domains shown)
VH: B1 VH with K66V, V109K
VL: B1 VL
notes: as m1, one VH change
B11: dBBDu183H V63W / dBBDu072L (antibody, name in Kabat numbering, V domains shown)
VH: B1 VH with K66W
VL: B1 VL
notes: as m1, one VH change
B12: dBBDu183H V100cE / dBBDu072L (antibody, name in Kabat numbering, V domains shown)
VH: B1 VH with K66V, V109E
VL: B1 VL
notes: as m1, one VH change
B13: dBBDu183H V100cS / dBBDu072L (antibody, name in Kabat numbering, V domains shown)
VH: B1 VH with K66V, V109S
VL: B1 VL
notes: as m1, one VH change
B14: dBBDu183H V63S / dBBDu072L (antibody, name in Kabat numbering, V domains shown)
VH: B1 VH with K66S
VL: B1 VL
notes: as m1, one VH change
B15: dBBDu183H V63N / dBBDu072L (antibody, name in Kabat numbering, V domains shown)
VH: B1 VH with K66N
VL: B1 VL
notes: as m1, one VH change
B16: dBBDu183H V100cR / dBBDu072L (antibody, name in Kabat numbering, V domains shown)
VH: B1 VH with K66V, V109R
VL: B1 VL
notes: as m1, one VH change
B17: dBBDu183H V63T / dBBDu072L (antibody, name in Kabat numbering, V domains shown)
VH: B1 VH with K66T
VL: B1 VL
notes: as m1, one VH change

Changes are numbered by the printed parent chain. Numbers in names are those of the source.

We go through 17 molecules from patent publication US20210388087A1 (Chugai, published 2021).

This experiment deals with T1, Human CD137 ECD (human).
T1 construct: also called 4-1BB
T1 sequence (chain, as listed by the source limits assumed): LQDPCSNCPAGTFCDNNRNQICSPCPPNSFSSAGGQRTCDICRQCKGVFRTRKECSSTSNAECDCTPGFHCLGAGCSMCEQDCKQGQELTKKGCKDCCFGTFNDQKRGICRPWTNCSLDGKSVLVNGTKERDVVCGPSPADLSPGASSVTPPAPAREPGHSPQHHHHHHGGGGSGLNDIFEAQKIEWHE
The experiment is described as follows: SPR, vs parent H183/L072.
In the case of B1, the “fold change of affinity” value came to 0.8 fold.
Consider B2, for which the “fold change of affinity” value turned out to be 1.3 fold.
Consider B3, for which the “fold change of affinity” value came to 1 fold.
For the molecule B4, the “fold change of affinity” value was determined as 0.2 fold.
In the case of B5, the “fold change of affinity” value was found to be 0.6 fold.
For B6 the value was 0.6 fold; for B7, 1.4 fold; for B8, 0.5 fold.
For B9 the value was 0.5 fold; for B10, 0.5 fold; for B11, 1 fold.
For the molecule B12, the “fold change of affinity” value stood at 0.5 fold.
Next, B13: 0.5 fold; B14: 0.9 fold; B15: 0.9 fold.
Regarding B16, the “fold change of affinity” value is 0.7 fold.
Take B17: the “fold change of affinity” value came to 0.9 fold.
